Source: patent US20040037843A1
Read-outs that look alike come from different tables or passages of the source.

Assays:
HLA-A*0201 (human) [1] = experiment: competition with 125I-labelled probe peptide on purified HLA; conditions: remark: other sources report otherwise
HLA-A*2401 (human) [2] = biological target: HLA-A*2401 (human)
HLA-A*2401 (human) [3] = conditions: scale: ratio
HLA-A*0301 (human) = conditions: remark: other sources report otherwise
HLA-A*0203 (human) [4] = experiment: inhibition of 125I probe peptide binding to purified HLA; conditions: remark: other sources report otherwise
HLA-A*6802 (human) [5] = experiment: as above; conditions: remark: other sources report otherwise
HLA-A*0206 (human) [6] = experiment: as above; conditions: remark: other sources report otherwise
HLA-A*0201 (human) [7] = experiment: as above; conditions: remark: other sources report otherwise
HLA-A*0201 (human) [8] = experiment: competition with 125I probe peptide on purified HLA, gel filtration; conditions: remark: other sources report otherwise
HLA-A*0203 (human) [9] = experiment: as above; conditions: remark: other sources report otherwise
HLA-A*0206 (human) [10] = experiment: as above; conditions: remark: other sources report otherwise
HLA-A*0202 (human) [11] = experiment: as above; conditions: remark: other sources report otherwise
HLA-A*6802 (human) [12] = experiment: as above; conditions: remark: other sources report otherwise
HLA-A*0202 (human) [13] = experiment: competition with 125I-labeled probe peptide for purified HLA, gel filtration; conditions: remark: other sources report otherwise
HLA-A*0206 (human) [14] = experiment: as above; conditions: remark: other sources report otherwise
HLA-A*6802 (human) [15] = experiment: as above; conditions: remark: other sources report otherwise
HLA-A*0203 (human) [16] = experiment: inhibition of 125I probe peptide binding to purified HLA, gel filtration; conditions: remark: other sources report otherwise
HLA-A*0202 (human) [17] = conditions: remark: other sources report otherwise

A relative binding ratio (HLA-A*0201 (human) [1]) of 0.0008 was found for WVLTAAHCI [PSA 55, 9 amino acids] in this work.

A relative binding ratio (IC50 of standard peptide / IC50 of test peptide) (HLA-A*2401 (human) [2]) of 0.0057 was found for RYRKFLNESY [PAP peptide, position 88, 10 amino acids (A24 supermotif)] in this work.

A relative binding ratio (IC50 of standard peptide / IC50 of test peptide) (HLA-A*2401 (human) [2]) of 0.0013 was found for SWPQGFGQL [PAP peptide, position 62, 9 amino acids (A24 supermotif)] in this work.

A relative binding ratio (IC50 of standard peptide / IC50 of test peptide) (HLA-A*2401 (human) [2]) of 0.26 was found for SYKHEQVYI [PAP peptide, position 96, 9 amino acids (A24 supermotif)] in this work.

A relative binding ratio (A*2401) (HLA-A*2401 (human) [3]) of 0.0005 was found for VFRHGDRSPI [PAP (Prostatic Acid Phosphatase) peptide, position 41, 10 amino acids] in this work.

A relative binding ratio (A*2401) (HLA-A*2401 (human) [3]) of 0.032 was found for VYNGLLPPY [PAP (Prostatic Acid Phosphatase) peptide, position 302, 9 amino acids] in this work.

A relative binding ratio (IC50 of standard peptide / IC50 of test peptide) (HLA-A*0301 (human)) of 0.011 was found for RAVCGGVLVH [PSA peptide, position 43, 10 amino acids] in this work.

A relative binding ratio (IC50 of standard peptide / IC50 of test peptide) (HLA-A*0301 (human)) of 0.0003 was found for VTKFMLCAGR [PSA 188 10-mer peptide …] in this work.

An IC50 (HLA-A*0203 (human) [4]) of 3.8 nM and an IC50 (HLA-A*6802 (human) [5]) of 6670 nM were found for SLLAKELKFV [Peptide 63.0033 … (PAP.29.L2)] in this work.

An IC50 (HLA-A*0206 (human) [6]) of 86 nM and an IC50 (HLA-A*6802 (human) [5]) of 2290 nM were found for VLAKELKFVV [Peptide 63.0034 … (PAP.30.V10)] in this work.

An IC50 (HLA-A*0201 (human) [7]) of 385 nM, an IC50 (HLA-A*0203 (human) [4]) of 37 nM and an IC50 (HLA-A*0206 (human) [6]) of 3700 nM were found for TLMSAMTNLA [Peptide 20.0312 … (PAP.112)] in this work. For the same binder, the IC50 (HLA-A*6802 (human) [5]) was 6670 nM.

An IC50 (HLA-A*0201 (human) [8]) of 278 nM, an IC50 (HLA-A*0203 (human) [9]) of 133 nM and an IC50 (HLA-A*0206 (human) [10]) of 2640 nM were found for ALFPPEGVSI [Peptide 1419.6 … (PAP.122)] in this work.

An IC50 (HLA-A*0201 (human) [8]) of 250 nM, an IC50 (HLA-A*0202 (human) [11]) of 94 nM and an IC50 (HLA-A*0206 (human) [10]) of 451 nM were found for GVSIWNPILV [Peptide 63.0041 … (PAP.128.V10)] in this work. The IC50 (HLA-A*6802 (human) [12]) was 2290 nM.

An IC50 (HLA-A*0201 (human) [8]) of 455 nM, an IC50 (HLA-A*0202 (human) [11]) of 269 nM and an IC50 (HLA-A*0203 (human) [9]) of 909 nM were found for GVSIWNPIV [Peptide 60.0207 … (PAP.128.V9)] in this work.

An IC50 (HLA-A*0201 (human) [8]) of 238 nM, an IC50 (HLA-A*0202 (human) [11]) of 47 nM and an IC50 (HLA-A*0206 (human) [10]) of 336 nM were found for PLLLWQPIPV [Peptide 63.0042 … (PAP.134.L2)] in this work.

An IC50 (HLA-A*0201 (human) [8]) of 263 nM and an IC50 (HLA-A*6802 (human) [12]) of 1820 nM were found for KLRELSELSV [Peptide 63.0048 … (PAP.234.V10)] in this work.

An IC50 (HLA-A*0201 (human) [8]) of 73 nM and an IC50 (HLA-A*0203 (human) [9]) of 256 nM were found for ALDVYNGLL [Peptide 1177.02 … (PAP.299)] in this work.

An IC50 (HLA-A*0202 (human) [13]) of 0.2 nM was found for VLAGGFFLL [Peptide 1126.10] in this work.

An IC50 (HLA-A*0206 (human) [14]) of 112 nM and an IC50 (HLA-A*6802 (human) [15]) of 964 nM were found for GLPEGDLVYV [Peptide 1389.22] in this work.

An IC50 (HLA-A*0206 (human) [14]) of 40 nM was found for RMMNDQLMFL [Peptide 1126.06] in this work.

An IC50 (HLA-A*6802 (human) [15]) of 30 nM was found for QLMFLERAFI [Peptide 1126.16] in this work.

An IC50 (HLA-A*0202 (human) [13]) of 0.7 nM was found for ALFDIESKV [Peptide 1129.08] in this work.

An IC50 (HLA-A*0203 (human) [16]) of 115 nM was found for MLLRLSEPAEV [Peptide 1389.12 (PSA.118.V11)] in this work.

An IC50 (HLA-A*0202 (human) [17]) of 0.6 nM was found for LLFFWLDRSV [peptide 1097.09, PAP.21] in this work.

An IC50 (HLA-A*0202 (human) [17]) of 1 nM was found for ALFPPEGVSV [peptide 1419.61, PAP.122.V10] in this work.

An IC50 (HLA-A*0202 (human) [17]) of 0.9 nM was found for GLHGQDLFGI [peptide 1166.11, PAP.196] in this work.
